Reference: patent US20080176953A1, “Methods and compositions for treatment of ocular neovascularization and neural injury” (Allergan, Inc., priority 2000, published 2008)

Key:
photoreceptors = settings: intravitreal injection of purified NGF; cited from earlier work
[1] = tested on: "wet" age-related macular degeneration (ARMD); experiment: Photodynamic therapy (verteporfin) combined with intravenous PEDF in a patient, Example 1; assay type: in vivo
Description: The day of scheduled PDT treatment, the patient is administered 6 mg/M^2 of verteporfin. […] The treatment requires irradiation of the […].

retinoblastoma cells = settings: cited from earlier work
brain neurons in culture = settings: cited from earlier work

Molecule	survival of photoreceptors (photoreceptors)	visual acuity ([1]; 4 and 12 weeks following combined PDT and PEDF treatment)	renewed neovascularization ([1]; 12 weeks following PDT treatment)	optic nerve axon loss ([1]; after PDT with irradiation of the optic nerve)	Fluorescein angiography, leakage in the treated tissue ([1]; after one week and throughout the monitoring period)	visual inspection of the retina (affected areas) ([1]; one week following PDT, continuing through 12 week monitoring, intravenous PEDF every two days, verteporfin 6 mg/M^2)	differentiation of the retinoblastoma cells (retinoblastoma cells)	activity after heat incubation (retinoblastoma cells; incubation of PEDF at 75° C.)	elaboration of neuron-like processes (retinoblastoma cells; undifferentiated retinoblastoma cells)	life of brain neurons in culture (brain neurons in culture)	protection against acute neurotoxic insult (brain neurons in culture; e.g., glutamate toxicity)
NGF: polypeptide known to have neuroprotective and neurotrophic effects	Increased survival of photoreceptors										
PEDF: polypeptide originally isolated from cultured fetal human retinal pigment epithelial cells, approximate molecular weight 50 kDa (protein, UniProt P36955 20-418, looked up) Pigment epithelium-derived …: QNPASPPEEGSPDPDSTGALVEEEDPFFKVPVNKLAAAVSNFGYDLYRVRSSTSPTTNVLLSPLSVATALSALSLGAEQRTESIIHRALYYDLISSPDIHGTYKELLDTVTAPQKNLKSASRIVFEKKLRIKSSFVAPLEKSYGTRPRVLTGNPRLDLQEINNWVQAQMKGKLARSTKEIPDEISILLLGVAHFKGQWVTKFDSRKTSLEDFYLDEERTVRVPMMSDPKAVLRYGLDSDLSCKIAQLPLTGSMSIIFFLPLKVTQNLTLIEESLTSEFIHDIDRELKTVQAVLTVPKLKLSYEGEVTKSLQEMKLQSLFDSPDFSKITGKPIKLTQVEHRAGFEWNEDGAGTTPSPGLQPAHLTFPLDYHLNQPFIFVLRDTDTGALLFIGKILDPRGP		no discernable loss of vision	No evidence of renewed neovascularization	no evidence of optic nerve axon loss	minimal leakage	healthy with no whitening	induces differentiation	does not prevent PEDF from differentiating retinoblastoma cells	stimulate the elaboration of neuron-like processes	prolongs the life	protects neurons
